Data on two substances can be found in patent US20080300206.

The test system of this data set is recombinant wild-type human alpha-synuclein.

As to casein kinase I (CKI), the “S87 phosphorylation, immunoblot (ELADW-110)” value is reported as “A signal was detected only with CKI phosphorylation”; the “S129 phosphorylation in vitro, normalised by activity units” value is recorded as “CKI gave a modest signal”; the “S129 phosphorylation, immunoblot (11A5), kinase:AS 1:200 molar” value is “Prominent signals came from GRK6, CKI, CKII and PLK2”; the “S129 phosphorylation, immunoblot (11A5), rank of signal” value is reported as “CKI>GRK6>PLK2>GRK4>GRK5>GRK2”. In addition, the “phospho ser-129 level in vitro, normalised for molarity” value was “roughly equivalent levels of phospho ser-129 between CKI, GRK6 and PLK2”.

As to casein kinase II (CKII), the “S129 phosphorylation in vitro, normalised by activity units” value is given as “CKII was not detectable”; the “S129 phosphorylation, immunoblot (11A5), kinase:AS 1:200 molar” value was “Prominent signals came from GRK6, CKI, CKII and PLK2”.
